These results are taken from patent US20260242441A1.

The experiment concerns the target CD45 (PTPRC) phosphatase, endogenous, of Jurkat cells and human PBMC (human) (UniProt P08575). Kind of experiment: cell-based or functional assay.

“soluble recombinant human BTN2A2-Fc fusion protein (baculovirus / insect cell derived)”: the expansion of CD4+CD25+CD127low/-Foxp3+ Treg cells in human PBMC MLR, with or without CD45 inhibitor was 2 fold.
